Columns and labels:
[1] = molecular target: factor D purified from human serum (human) (UniProt P00746); assay: SPR (BIAcore), factor D amine-coupled to the chip, MAb 166-32 as analyte
[2] = molecular target: factor D purified from human serum (human) (UniProt P00746); assay: SPR (BIAcore), MAb captured by rabbit anti-mouse IgG, factor D as analyte
[3] = molecular target: dog factor D (in dog serum) (dog); assay: cell-based or functional assay; details: scale: times less effective than on human factor D
[4] = molecular target: factor D purified from human serum (human) (UniProt P00746); assay: cell-based or functional assay

Chain of UniProt P00746 (P00746 26-253 N180D): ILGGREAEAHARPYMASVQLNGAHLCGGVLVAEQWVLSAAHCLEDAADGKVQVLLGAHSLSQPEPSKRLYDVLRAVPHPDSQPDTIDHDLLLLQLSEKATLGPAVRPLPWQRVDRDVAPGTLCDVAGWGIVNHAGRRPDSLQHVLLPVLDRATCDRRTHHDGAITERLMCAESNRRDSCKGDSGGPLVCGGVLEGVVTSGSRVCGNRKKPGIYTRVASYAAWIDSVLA

Substance: MAb 166-32 (antibody)
- Kd [1]: 160 pM
- koff [1]: 7.6e-05 s⁻¹
- kon [1]: 460000 M⁻¹ s⁻¹
- Kd [2]: < 100 pM
- koff [2]: 0.00011 s⁻¹
- kon [2]: > 1e+06 M⁻¹ s⁻¹
- neutralization of factor D in hemolytic assays [3]: > 10
- alternative complement activity of plasma from extracorporeal circuits (hemolysis of rabbit red blood cells) (molar ratio (MAb: factor D)) [4]: 1.5
- factor D dependent hemolysis of unsensitized rabbit RBCs (factor D depleted human serum with purified factor D added) [4]: 0.3 µg/mL
- factor D dependent hemolysis of unsensitized rabbit RBCs: molar ratio for inhibition (molar ratio (MAb 166-32 to factor D)) [4]: 0.5
